Assay results taken from PMC2939071, “The Crystal Structure of Toxoplasma gondii Pyruvate Kinase 1” (PLoS ONE, 2010).

Legend:
[1] = target: T1, TgPK1 (T. gondii pyruvate kinase 1), full length (Toxoplasma gondii, UniProt Q969A2); assay: lactate dehydrogenase-coupled NADH assay, Hill fit; format: biochemical; conditions: allosteric activator; 1 mM effector, PEP varied 0.01 to 10 mM, 2 mM ADP, 50 mM KCl, 20 mM MgCl2, pH 7.5
T1 construct: gene pk; full length Met1-Glu531, N-terminal His6 tag and TEV site, tag kept; synthetic gene, expressed in E. coli; homotetramer
T1 sequence (Q969A2 1-531): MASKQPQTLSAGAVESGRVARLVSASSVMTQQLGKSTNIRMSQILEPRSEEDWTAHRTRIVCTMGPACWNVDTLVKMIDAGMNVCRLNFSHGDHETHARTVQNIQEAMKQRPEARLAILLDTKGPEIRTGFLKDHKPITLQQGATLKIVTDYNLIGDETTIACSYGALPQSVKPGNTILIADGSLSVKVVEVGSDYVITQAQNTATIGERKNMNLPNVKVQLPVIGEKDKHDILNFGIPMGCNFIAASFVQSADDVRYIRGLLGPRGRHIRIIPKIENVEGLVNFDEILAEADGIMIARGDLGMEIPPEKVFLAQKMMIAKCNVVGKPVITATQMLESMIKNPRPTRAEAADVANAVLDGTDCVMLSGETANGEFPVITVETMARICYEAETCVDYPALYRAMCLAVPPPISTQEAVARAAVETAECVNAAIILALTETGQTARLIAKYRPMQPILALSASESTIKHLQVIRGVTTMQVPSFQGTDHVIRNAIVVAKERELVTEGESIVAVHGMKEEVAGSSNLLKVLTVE

[2] = target: Toxoplasma gondii pyruvate kinase 1, N-terminally truncated (Ile39 to Glu531) (Toxoplasma gondii); assay: crystal structure; truncated TgPK1 crystallised with K+ and Mg2+; 15% PEG3350, 100 mM succinic acid pH 7.0; the asymmetric unit is a tetramer
[3] = target: Toxoplasma gondii pyruvate kinase 1, N-terminally truncated (Ile39 to Glu531) (Toxoplasma gondii); assay: SEC; Superdex 200 26/60 in 10 mM HEPES pH 7.5, 500 mM NaCl; oligomeric state from the elution volume (164 mL full length, 168 mL truncated); profile not shown
[4] = target: Toxoplasma gondii pyruvate kinase 1, full length (Met1 to Glu531) (Toxoplasma gondii) (UniProt Q27006); assay: as above
[5] = target: Toxoplasma gondii pyruvate kinase 1, full length (Met1 to Glu531) (Toxoplasma gondii) (UniProt Q27006); assay: crystal structure; full TgPK1 crystallised without substrates, effectors or added ions; 19% PEG3350, 100 mM BisTris pH 6.0, 200 mM NH4I; the asymmetric unit is a tetramer
[6] = substrate: C=C(OP(=O)(O)O)C(=O)O; assay: lactate dehydrogenase-coupled NADH assay, Hill fit; format: biochemical, Toxoplasma gondii; conditions: no sugar effector, cooperative (Hill), 2 mM ADP, 50 mM KCl, 20 mM MgCl2, 50 mM HEPES pH 7.5, room temperature
Text: lactate dehydrogenase-coupled NADH assay, Hill fit on TgPK1 (T. gondii pyruvate kinase 1), full length

How did the “lactate dehydrogenase-coupled NADH assay, Hill fit” value [1] turn out when `O=P(O)(O)OC[C@H]1OC(O)[C@H](O)[C@@H](O)[C@@H]1O` (stereo partly shown) [G6P, glucose-6-phosphate] was run?
The value was “G6P showed a classic allosteric activation with a six-fold reduction in the apparent Km”.

Which stoichiometry N [2] does the source give for “Toxoplasma gondii pyruvate kinase 1, N-terminally truncated (Ile39 to Glu531) (domain or fragment)” here?
Its stoichiometry N is 4.

And the stoichiometry N [3]?
The stoichiometry N was 4.

How did the stoichiometry N [4] turn out when “Toxoplasma gondii pyruvate kinase 1, full length (Met1 to Glu531) (from UniProt Q27006 1-509) (enzyme)” was run?
Its stoichiometry N is 4.

What about the stoichiometry N [5] of the same molecule?
Its stoichiometry N is 4.

B1: TgPK1 (T. gondii pyruvate kinase 1), full length (Toxoplasma gondii) (protein)
chain: MASKQPQTLSAGAVESGRVARLVSASSVMTQQLGKSTNIRMSQILEPRSEEDWTAHRTRIVCTMGPACWNVDTLVKMIDAGMNVCRLNFSHGDHETHARTVQNIQEAMKQRPEARLAILLDTKGPEIRTGFLKDHKPITLQQGATLKIVTDYNLIGDETTIACSYGALPQSVKPGNTILIADGSLSVKVVEVGSDYVITQAQNTATIGERKNMNLPNVKVQLPVIGEKDKHDILNFGIPMGCNFIAASFVQSADDVRYIRGLLGPRGRHIRIIPKIENVEGLVNFDEILAEADGIMIARGDLGMEIPPEKVFLAQKMMIAKCNVVGKPVITATQMLESMIKNPRPTRAEAADVANAVLDGTDCVMLSGETANGEFPVITVETMARICYEAETCVDYPALYRAMCLAVPPPISTQEAVARAAVETAECVNAAIILALTETGQTARLIAKYRPMQPILALSASESTIKHLQVIRGVTTMQVPSFQGTDHVIRNAIVVAKERELVTEGESIVAVHGMKEEVAGSSNLLKVLTVE
notes: full length Met1-Glu531, N-terminal His6 tag and TEV site, tag kept; synthetic gene, expressed in E. coli; homotetramer
What does the source list for B1?
Km [6]: 750 ± 51 µM; Vmax [6]: 42 µM/min
